From paper PMC4878873 come the findings set out here.

For assay [1], the target named is Cul1^d-N8/Rbx1^∆RING (human) (UniProt Q13616).
Assay [2] shares this target. The source holds these as a separate data set.
The next assay concerns the target CUL3. The assay can be described thus: anti-Flag immunoprecipitation, SILAC mass spectrometry. As to conditions: HEK293T; mutant in light medium, wild type in heavy medium; read off a plot.
The target of another assay is RBX1. Described as above. As to conditions: HEK293T; mutant in light medium, wild type in heavy medium; read off a plot.
The target of a further assay is Elongin B. The description is as above. As to conditions: HEK293T; mutant in light medium, wild type in heavy medium; read off a plot.
A further assay concerns the target Elongin C. The description is as above. As to conditions: HEK293T; mutant in light medium, wild type in heavy medium; read off a plot.
The target in the next assay is SKP1. The description is as above. As to conditions: HEK293T; mutant in light medium, wild type in heavy medium; read off a plot.
A further assay concerns the target CUL1. The assay is described as above. As to conditions: HEK293T; mutant in light medium, wild type in heavy medium; read off a plot.
The target of a further assay is DDB1. The description is as above. As to conditions: HEK293T; mutant in light medium, wild type in heavy medium; read off a plot.
In a further assay the target is CUL4B. Described as above. As to conditions: HEK293T; mutant in light medium, wild type in heavy medium; read off a plot.
For another assay, the target named is CUL2. The description is as above. As to conditions: HEK293T; mutant in light medium, wild type in heavy medium; read off a plot.
A further assay addresses CUL4A. The description is as above. As to conditions: HEK293T; mutant in light medium, wild type in heavy medium; read off a plot.
For assay [3], the target named is COP9-Signalosome (CSN), wild type (human) (UniProt Q13098).

unlabeled Cul1/Rbx1, sequence (Q13616 whole entry): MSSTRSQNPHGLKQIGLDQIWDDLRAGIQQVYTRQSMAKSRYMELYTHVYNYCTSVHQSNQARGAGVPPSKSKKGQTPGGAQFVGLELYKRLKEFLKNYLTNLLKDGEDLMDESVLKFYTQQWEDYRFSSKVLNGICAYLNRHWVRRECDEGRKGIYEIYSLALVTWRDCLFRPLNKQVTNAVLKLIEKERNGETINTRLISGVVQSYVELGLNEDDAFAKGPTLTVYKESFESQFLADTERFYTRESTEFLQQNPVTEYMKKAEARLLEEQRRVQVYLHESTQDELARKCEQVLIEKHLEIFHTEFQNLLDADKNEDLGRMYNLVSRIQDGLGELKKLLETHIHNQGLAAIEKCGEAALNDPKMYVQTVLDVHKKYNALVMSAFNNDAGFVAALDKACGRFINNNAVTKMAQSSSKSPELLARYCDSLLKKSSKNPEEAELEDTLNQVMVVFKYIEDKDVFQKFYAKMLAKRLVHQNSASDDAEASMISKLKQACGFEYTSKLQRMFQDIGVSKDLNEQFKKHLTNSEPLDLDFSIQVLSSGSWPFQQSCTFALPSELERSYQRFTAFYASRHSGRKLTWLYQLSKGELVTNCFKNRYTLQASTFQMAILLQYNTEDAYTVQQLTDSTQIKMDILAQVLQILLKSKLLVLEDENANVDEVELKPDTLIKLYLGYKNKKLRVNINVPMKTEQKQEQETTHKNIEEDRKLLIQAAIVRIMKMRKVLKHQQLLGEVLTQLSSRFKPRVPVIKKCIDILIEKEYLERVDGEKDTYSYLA
unlabeled Cul1/Rbx1, sequence (P62877 whole entry): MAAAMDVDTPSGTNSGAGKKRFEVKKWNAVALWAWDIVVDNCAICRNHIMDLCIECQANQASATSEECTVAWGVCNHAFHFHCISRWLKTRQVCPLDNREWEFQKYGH

As to “COP9-Signalosome (CSN), wild type (from UniProt Q13098 1-491; P61201 1-443; Q9UNS2 1-423; Q9BT78 1-406; Q92905 1-334; Q7L5N1 1-327; Q9H9Q2 1-264; Q99627 1-209) (complex)”, in [1], the KM of deneddylation of Cul1-N8/Rbx1^∆RING (with the sortase sequence, not dansylated) by CSN stood at 5 nM.

By Kd is commonly meant a measure of binding affinity in units of concentration. Low values mean a tighter complex, high ones a looser complex. As for “CSN^5E76A (from UniProt Q13098 1-491; P61201 1-443; Q9UNS2 1-423; Q9BT78 1-406; Q92905 1-334; Q7L5N1 1-327; Q9H9Q2 1-264; Q99627 1-209) (complex)”, the Kd in assay [2] came out at 13 nM.

As to “Flag-tagged wild type Csn5 (from UniProt Q92905) T103I”, the ratio to parent with CUL3 was 0.75; with RBX1, 0.92; in the assay with Elongin B, 0.85; with Elongin C it was 0.8; in the assay with SKP1 it was 0.88; with CUL1 it was 0.9. Also, the ratio to parent with DDB1 worked out at 0.78; with CUL4B it was 0.63; with CUL2 it was 0.83; with CUL4A, 0.57.

One may read the IC50 as the concentration at which inhibition is half-maximal. Low readings indicate inhibition by little substance, high ones a need for much substance. As for “unlabeled Cul1/Rbx1 (from UniProt Q13616 1-776; P62877 1-108) (complex)”, the IC50 in assay [3] was 390 nM.
